Measurements as given in patent publication US20250082608A1, “TREATMENT AND PREVENTION OF GLOMERULAR DISEASE” (Singapore Health Services PTE LTD., priority 2021, published 2025).
Entries after “also recorded” stand apart in the source; their conditions may differ.

Columns and labels:
[1] = system: rheumatoid synovial cells; conditions: upon treatment; cited from earlier work
Col4a3−/− mice [2] = conditions: cited from earlier work
Col4a3−/− mice [3] = assay: Lifespan study in Col4a3−/− mice, anti-IL11 and ramipril alone or in combination, Example 3; assay type: in vivo, mouse; conditions: X203 20 mg/kg twice a week, ramipril 10 mg/kg 6 days/week, from 6 weeks of age; for mean percentage lifespan extension: over lifespan of untreated Col4a3−/− mice
Description: Col4a3^−/− (Col4a3^tm1Dec) mice were housed as described in Example 2.2. For lifespan studies, the mice were intraperitoneally administered either anti-IL11 (X203; twice a week, 20 mg/kg) or IgG isotype control (11 E10; twice a week, 20 mg/kg) alone or in combination with ramipril (10 mg/kg; 6 days/week) starting from 6 weeks of age, until death ensued.

Col4a3−/− mice [4] = assay: Lifespan study in Col4a3−/− mice, Example 2; assay type: in vivo, mouse
Description: (§1) Col4a3^−/− (Col4a3^tm1Dec) mice were purchased from The Jackson Laboratory (https://www.jax.org/strain/002908). Mice were housed in temperatures of 21-24° C. with 40-70% humidity on a 12 h light/12 h dark cycle and provided with food and water ad libitum. For treatment study, Col4a3^−/− were administered 20 mg/kg of anti-IL11 (X203) or IgG isotype control (11 E10) by intraperitoneal (IP) injection starting from 6 weeks of age twice a week for 2.5 weeks; wild-type littermates were used as controls. Mice were sacrificed for blood and kidney collection when they were 8.5-week-old. For lifespan study, IgG/X203 was administered to 6-week-old Col4a3^−/− (2×/week) until death ensued.
Statistical analyses were performed using GraphPad Prism software (version 8). Statistical significance between control and experimental groups were analysed by twosided Student's t tests or by one-way ANOVA as indicated in the figure legends. P values were corrected for multiple testing according to Tukey when several conditions were compared to each other within one experiment. Comparison analysis for two parameters from two different groups were performed by two-way ANOVA. Survival curves were analyzed by Gehan-Breslow-Wilcoxon test. The criterion for statistical significance was P<0.05.

Col4a3−/− mice [5] = assay: Treatment study in Col4a3−/− mice: body weight and kidney weight; assay type: in vivo, mouse
Description: as §1
Over recent years, antibodies that inhibit IL11 signaling in mouse and human cells have been developed^15,17. One of these neutralizing IL11 antibodies (X203) or an IgG control were administered to 6-week-old Col4a3^−/− mice, the time point when initiation of ramipril has proven ineffective^6, and examined renal pathologies at 8.5 weeks of age, as compared to age-matched wild-type controls (FIG. 3A).

Col4a3−/− mice [6] = assay: Treatment study in Col4a3−/− mice: renal function (BUN, serum creatinine, urinary albumin:creatinine) by colorimetric assays/ELISA; assay type: in vivo, mouse; conditions: study end, 8.5 weeks of age; X203 from week 6
Description: as §1
The levels of blood urea nitrogen (BUN) and creatinine in mouse serum were measured using Urea Assay Kit (ab83362, Abcam) and Creatinine Assay Kit (ab65340, Abcam), respectively. Urine albumin and creatinine levels were measured using Mouse Albumin ELISA kit (ab108792, Abcam) and Creatinine Assay Kit (ab204537, Abcam), respectively. All ELISA and colorimetric assays were performed according to the manufacturer's protocol.

129-Col4a3^tm1Dec/J mice = assay: Survival of mice homozygous for Col4a3^tm1Dec (mouse model of Alport syndrome), Example 1; assay type: in vivo; conditions: 20 mg/kg i.p. biweekly from 6 weeks of age until mortality
Text: 129-Col4a3^tm1Dec/J mice were obtained from The Jackson Laboratory (Stock No:002908; COL4A3 KO). The mice comprise the Col4a3^tm1Dec mutation described e.g. in Cosgrove et al., Genes Dev. (1996) 10:2981-2992, which is hereby incorporated by reference in its entirety. 129-Col4a3^tm1Dec/J mice comprise a targeted mutation to Col4a3, resulting in progressive glomerulonephritis with microhematuria and proteinuria, and mice homozygous for the mutation typically die at about 8.5 weeks.
From 6 weeks of age, mice homozygous for the Col4a3^tm1Dec mutation were administered biweekly by intraperitoneal injection of 20 mg/kg of Enx203, or an isotype-matched control antibody, until mortality.

Col4a3−/− mice [7] = assay: Treatment study in Col4a3−/− mice: renal fibrosis (total renal collagen content, Masson's Trichrome staining); assay type: in vivo, mouse; conditions: 20 mg/kg 2x/week for 2.5 weeks from 6 weeks of age; vs IgG
Description: as §1
Kidney tissues were fixed for 48 hours at RT in 10% neutral-buffered formalin (NBF), dehydrated, embedded in paraffin, and sectioned at 7 μm. Transverse kidney sections were then stained with Masson's Trichrome according to standard protocol. Images of the sections were captured by light microscopy and blue-stained fibrotic areas were semi-quantitatively determined with Image-J software (color deconvolution-Masson Trichrome) from the whole kidney area (100×field, n=4 kidneys/group). Treatment and genotypes were not disclosed to investigators performing the histology and generating semi-quantitative readouts.

Col4a3−/− mice [8] = assay: Treatment study in Col4a3−/− mice: Wilms' Tumor 1 immunohistochemistry (podocytes); assay type: in vivo, mouse; conditions: blinded quantification; vs IgG, P=0.0002
Description: as §1
Kidneys were fixed in 10% neutral-buffered formalin (NBF), paraffinized, cut into 7 μm sections, incubated with primary antibodies overnight and visualized using an ImmPRESS HRP anti-rabbit IgG polymer detection kit (MP-7401, Vector Laboratories) with ImmPACT DAB Peroxidase Substrate (SK-4105, Vector Laboratories). Quantification of WT^+ve cells were performed in a blinded fashion from 4 images (200×field)/kidney (n=3-4 kidneys/group).

Col4a3−/− mice [9] = assay: Treatment study in Col4a3−/− mice: renal mRNA expression by qPCR; assay type: in vivo, mouse
Description: as §1
Total RNA was extracted from snap-frozen kidney tissues using Trizol (Invitrogen) followed by RNeasy column (Qiagen) purification. cDNAs were synthesized with iScript™ cDNA synthesis kit (Bio-Rad) according to manufacturer's instructions. Gene expression analysis was performed on duplicate samples with either TaqMan (Applied Biosystems) or fast SYBR green (Qiagen) technology using StepOnePlus™ (Applied Biosystem) over 40 cycles. Expression data were normalized to GAPDH mRNA expression and fold change was calculated using […]. The sequences of specific TaqMan probes and SYBR green primers are available upon request.

Col4a3−/− mice [10] = assay: Treatment study in Col4a3−/− mice: Western blot of kidney protein extracts; assay type: in vivo, mouse; conditions: vs IgG
Description: as §1
Western blot was carried out on total protein extracts from mouse kidney tissues. Kidneys were lysed in radioimmunoprecipitation assay (RIPA) buffer containing protease and phosphatase inhibitors (Thermo Scientifics), followed by centrifugation to clear the lysate. Protein concentrations were determined by Bradford assay (Bio-Rad). Protein lysates were separated by SDS-PAGE, transferred to PVDF membrane, and subjected to immunoblot analysis for various antibodies as outlined in the main text, figures, or and/or figure legends. Proteins were visualized using the ECL detection system (Pierce) with the appropriate secondary antibodies: anti-rabbit HRP or antimouse HRP.

IL-11Rα = target: T1, IL-11Rα (Homo sapiens, UniProt Q14626); conditions: low affinity; cited from earlier work
T1 sequence (Q14626 23-422): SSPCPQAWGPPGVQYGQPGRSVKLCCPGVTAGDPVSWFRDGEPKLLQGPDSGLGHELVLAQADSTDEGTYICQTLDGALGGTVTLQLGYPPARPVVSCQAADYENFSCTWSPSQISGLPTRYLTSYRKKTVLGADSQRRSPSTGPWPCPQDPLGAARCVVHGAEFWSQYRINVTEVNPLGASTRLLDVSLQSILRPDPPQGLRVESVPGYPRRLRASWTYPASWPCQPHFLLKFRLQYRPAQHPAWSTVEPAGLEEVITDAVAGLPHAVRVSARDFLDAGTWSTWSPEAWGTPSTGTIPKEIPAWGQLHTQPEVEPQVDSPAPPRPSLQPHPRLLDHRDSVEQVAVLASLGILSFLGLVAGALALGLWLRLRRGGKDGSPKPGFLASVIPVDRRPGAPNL

COc1ccc2c(c1)c(CC(=O)O)c(C)n2C(=O)c1ccc(Cl)cc1 [indomethacin, reference compound]
expression of IL-11 [1]: reduction in the expression of IL-11

CCOC(=O)[C@H](CCc1ccccc1)N[C@@H](C)C(=O)N1[C@H](C(=O)O)C[C@@H]2CCC[C@@H]21 [ramipril]
beneficial effect of delayed treatment (Col4a3−/− mice [2]; treatment delayed until after proteinuria was established (6-week-old mice)): no beneficial effect; also recorded: ineffective | kidney dysfunction and lifespan (Col4a3−/− mice [2]; treatment of 4-week-old mice, prior to onset of proteinuria and tubulointerstitial fibrosis): attenuated kidney dysfunction and prolonged lifespan | improvement of median survival over untreated mice (Col4a3−/− mice [3]): 14 days | mean percentage lifespan extension (Col4a3−/− mice [3]): 25.40%

interferon-gamma (IFNγ): interferon-gamma
expression of IL-11 [1]: reduction in the expression of IL-11

B1: Enx203: mouse anti-mouse IL-11 IgG, neutralizing; VH SEQ ID NO:22, VL SEQ ID NO:23 (antibody, V domains shown)
VH: EVQLQQSGPELVKPGASVKIPCKASGYTFTDYNMDWVKQSHGKSLEWIGDINPHNGGPIYNQKFTGKATLTVDKSSSTAYMELRSLTSEDTAVYYCARGELGHWYFDVWGTGTTVTVSS
VL: DIVLTQSPASLAVSLGQRATISCRASKSVSTSGYSYIHWYQQKPGQPPKLLIYLASNLDSGVPARFSGSGSGTDFTLNIHPVEEEDAATYYCQHSRDLPPTFGGGTKLEIK
median lifespan (Col4a3−/− mice [4]; 20 mg/kg 2x/week from 6 weeks of age until death, IgG control 62.5 days, P=0.0015): 88.5 days | extension of median life span (Col4a3−/− mice [4]; from 62.5 to 88.5 days, vs IgG): 41.6% | kidney mass (kidney weight) (Col4a3−/− mice [5]; 20 mg/kg 2x/week for 2.5 weeks from 6 weeks of age, vs IgG): preserved kidney mass | total body weight loss as a percentage of starting body weight (Col4a3−/− mice [5]; 20 mg/kg i.p. 2x/week for 2.5 weeks from 6 weeks of age, end of study, IgG control 30%, P=0.0003): 17% | serum blood urea nitrogen (BUN) (Col4a3−/− mice [6]): improved renal function; also recorded: markedly lowered | serum creatinine (Cr) (Col4a3−/− mice [6]): improved renal function; also recorded: markedly lowered | urinary albumin:creatinine ratio (ACR) (Col4a3−/− mice [6]): reduced albuminuria; also recorded: markedly lowered | increase in survival relative to mice treated with isotype-matched control antibody (129-Col4a3^tm1Dec/J mice): up to 40% | kidney fibrosis by biochemical and histological assessments (Col4a3−/− mice [7]): reduced severity of renal fibrosis; also recorded: significantly less kidney fibrosis | number of WT1-positive cells (podocytes) (Col4a3−/− mice [8]): restored towards normal; also recorded: restoration of podocytes | improvement of median survival over untreated mice (Col4a3−/− mice [3]): 28 days | mean percentage lifespan extension (Col4a3−/− mice [3]): 41.93% | renal levels of extracellular matrix genes (Col1a1, Col1a2, Col3a1, Fn), Acta2 and pro-fibrotic factors (Il11, Tgfb1) (Col4a3−/− mice [9]; mRNA, 20 mg/kg 2x/week for 2.5 weeks from 6 weeks of age, vs IgG): all reduced | indicators of tubule damage (Kim1 and Ngal) (Col4a3−/− mice [9]; renal mRNA): restored by X203 administration towards the levels seen in wildtype mice | Tnfα expression (Col4a3−/− mice [9]; renal mRNA, vs IgG): reduced Tnfα expression | proinflammatory interleukins (Il6, Il1b) and CC chemokines (Ccl2, Ccl5) (Col4a3−/− mice [9]; renal mRNA, vs IgG): equally diminished | ERK and STAT3 phosphorylation in kidneys (Col4a3−/− mice [10]; 20 mg/kg 2x/week for 2.5 weeks from 6 weeks of age): largely reduced; also recorded: largely diminished | TGFβ upregulation in the kidneys (Col4a3−/− mice [10]; Western blot): significantly reduced the degree of TGFβ upregulation | Caspase 3 activation (Col4a3−/− mice [10]; kidney Western blot (cleaved Caspase 3)): reduced | alpha-smooth muscle actin (αSMA) and fibronectin protein (Col4a3−/− mice [10]; kidney, reduction seen on transcripts): confirmed at the protein level | podocyte markers WT1 and Podocin by immunoblotting (Col4a3−/− mice [10]; kidney): restored towards normal; also recorded: Preservation of podocytes

B2: IL-11: pleiotropic cytokine, member of the IL-6 family; human sequence SEQ ID NO:1 (protein)
chain: PGPPAGSPRVSSDPRADLDSAVLLTRSLLADTRQLAAQMRDKFPADGDHSLDSLPTLAMSAGTLGSLQLPGVLTRLRVDLMSYLRHVQWLRRAGGPSLKTLEPELGALQARLERLLRRLQLLMSRLALPQAAPDQPVIPLGPPASAWGSIRAAHAILGGLHLTLDWAVRGLLLLKTRL
Kd (IL-11Rα): ~0.022 µM
